Target: Strep-Flag-FAS I, recombinant 4'-phosphopantetheinylated M. tuberculosis fatty acid synthase I (M. tuberculosis)
Test: SEC; […] (100 mM potassium phosphate pH 7.2, 150 mM KCl, 1 mM TCEP, 1 mM EDTA); […]

Q: “Strep-Flag-FAS I, recombinant 4'-phosphopantetheinylated M. tuberculosis fatty acid synthase I (enzyme)” was tested. Which stoichiometry N did it give?
A: 6
